Substitutions are numbered along the chain they refer to. Names may count otherwise.
B1: untagged RNF168 UDM2ΔC (residues 419-462) (domain or fragment, human, UniProt Q8IYW5 419-462, looked up)
chain: EETEINFTQKLIDLEHLLFERHKQEEQDRLLALQLQKEVDKEQM
notes: RNF168, human, residues 419-462 (UDM2ΔC); also called UDM2ΔC (untagged); UAD–MIU2; source: E. coli Rosetta (DE3), purified (Glutathione Sepharose, HRV3C cleavage, ResourceQ, Superdex75)
B2: untagged RNF168 LRM1-UMI (residues 110-166) (domain or fragment, human, UniProt Q8IYW5 110-166, looked up)
chain: LSKPGELRREYEEEISKVAAERRASEEEENKASEEYIQRLLAEEEEEEKRQAEKRRR
notes: Printed as untagged; also called LRM1–UMI (untagged); source: E. coli Rosetta (DE3), purified
B3: His6-fused RNF168 UMI-MIU1 (residues 134-188) (domain or fragment, human, UniProt Q8IYW5 134-188, looked up)
chain: SEEEENKASEEYIQRLLAEEEEEEKRQAEKRRRAMEEQLKSDEELARKLSIDINN
notes: source: E. coli, purified (Ni-NTA, then as UDM2ΔC)
B4: GST-tagged RNF168 MIU1 (residues 161-194) (domain or fragment, human, UniProt Q8IYW5 161-194, looked up)
chain: AEKRRRAMEEQLKSDEELARKLSIDINNFCEGSI
notes: RNF168, human, residues 161-194 (MIU1 alone); This construct is not in the methods' list of constructs; its limits stand in the results only; also called MIU1 alone; source: E. coli Rosetta (DE3), purified (Glutathione Sepharose)
B5: GST-tagged RNF168 MIU2 (residues 436-462) (domain or fragment, human, UniProt Q8IYW5 436-462, looked up)
chain: LFERHKQEEQDRLLALQLQKEVDKEQM
notes: RNF168, human, residues 436-462 (MIU2); source: E. coli Rosetta (DE3), purified (Glutathione Sepharose)
B6: GST-tagged RNF168 UDM2 (residues 419-487) (domain or fragment, human, UniProt Q8IYW5 419-487, looked up)
chain: EETEINFTQKLIDLEHLLFERHKQEEQDRLLALQLQKEVDKEQMVPNRQKGSPDEYHLRATSSPPDKVL
notes: RNF168, human, residues 419-487 (UDM2); source: E. coli Rosetta (DE3), purified (Glutathione Sepharose)
B7: GST-tagged RNF168 UDM2ΔC (residues 419-462) (domain or fragment, human, UniProt Q8IYW5 419-462, looked up)
chain: B1 chain
notes: RNF168, human, residues 419-462 (UDM2ΔC); also called UAD–MIU2; source: E. coli Rosetta (DE3), purified (Glutathione Sepharose)
B8: GST-tagged RNF168 UDM2ΔC (R439A) (domain or fragment, human, UniProt Q8IYW5 419-462, looked up)
chain: B1 chain with R21A
notes: RNF168, human, residues 419-462 (UDM2ΔC) with R439A; source: E. coli Rosetta (DE3), purified (Glutathione Sepharose)
B9: GST-tagged RNF168 UDM2ΔC (E433R) (domain or fragment, human, UniProt Q8IYW5 419-462, looked up)
chain: B1 chain with E15R
notes: RNF168, human, residues 419-462 (UDM2ΔC) with E433R; source: E. coli Rosetta (DE3), purified (Glutathione Sepharose)
B10: GST-tagged RNF168 UDM2ΔC (L436T) (domain or fragment, human, UniProt Q8IYW5 419-462, looked up)
chain: B1 chain with L18T
notes: RNF168, human, residues 419-462 (UDM2ΔC) with L436T; source: E. coli Rosetta (DE3), purified (Glutathione Sepharose)
B11: GST-tagged RNF168 UMI (residues 134-166) (domain or fragment, human, UniProt Q8IYW5 134-166, looked up)
chain: SEEEENKASEEYIQRLLAEEEEEEKRQAEKRRR
notes: Cloned into pCold-GST; source: E. coli Rosetta (DE3), purified (Glutathione Sepharose)
B12: GST-tagged RNF168 LRM1 (L116A)-UMI (domain or fragment, human, UniProt Q8IYW5 110-166, looked up)
chain: B2 chain with L7A
notes: source: E. coli Rosetta (DE3), purified (Glutathione Sepharose)
B13: GST-tagged RNF168 LRM1 (Y120A)-UMI (domain or fragment, human, UniProt Q8IYW5 110-166, looked up)
chain: B2 chain with Y11A
notes: as for B12
B14: GST-tagged RNF168 LRM1-UMI (L149A) (domain or fragment, human, UniProt Q8IYW5 110-166, looked up)
chain: B2 chain with L40A
notes: as for B12
B15: GST-tagged RNF168 LRM1-UMI (residues 110-166) (domain or fragment, human, UniProt Q8IYW5 110-166, looked up)
chain: B2 chain
notes: Cloned into pCold-GST; also called N-terminal part of UDM1; source: E. coli Rosetta (DE3), purified (Glutathione Sepharose)
B16: GST-tagged RNF168 LRM1-UMI (S142A) (domain or fragment, human, UniProt Q8IYW5 110-166, looked up)
chain: B2 chain with S33A
notes: as for B12

Target: T1, Met1-linked diUb (M1-Ub2) (human, UniProt P0CG47 1-76; P0CG47 1-76)
T1 construct: ubiquitin, human, first (distal) moiety of the linear diUb; ubiquitin, human, second (proximal) moiety, its Met1 joined to Gly76 of the first; Expressed from a human M1-Ub2 gene as one chain; source: E. coli Rosetta (DE3), pET26b, purified (heat step, ResourceS, Superdex75)
Assay: SPR; untagged LRM1-UMI or UDM2ΔC covalently immobilised on CM5 by amine coupling (10 mM sodium acetate pH 4.0 or 4.5); Ub2 species injected; HBS-P, 25 °C; steady-state fit, 1:1 model
Details: both partners purified

Binder	Kd
B1	145 µM
B2	200 µM

Target: T1, Met1-linked diUb (M1-Ub2)
Assay: pull-down; 100 µg His6-fused RNF168 on Ni-NTA beads, 15 µg Ub2 species, 25 mM Tris-HCl pH 8.0, 20 mM imidazole, 0.1% Triton X-100, 100 mM NaCl, on ice 2 h; SDS-PAGE, Coomassie (Supplementary Fig. 1a)
Details: both partners purified

Binder	binding result
B3	binds

Target: T1, Met1-linked diUb (M1-Ub2)
Assay: SPR; GST-fused RNF168 domains captured by immobilised anti-GST antibody on CM5 chip (1000-1500 RU); Ub2 species injected 60 s at 10 µL per min; HBS-P (10 mM HEPES-Na pH 7.4, 150 mM NaCl, 0.05% P20), 25 °C; steady-state fit, 1:1 model
Details: both partners purified

Binder	Kd
B4	233 µM
B5	235 µM
B6	238 µM
B7	221 µM
B8	495 µM
B9	214 µM
B10	160 µM
B11	306 µM
B12	206 µM
B13	236 µM
B14	1150 µM
B15	231 µM
B16	965 µM

Reference: article PMC5766498 (Nature Communications, 2018)
